Data set [1] addresses T1, GST-PAPP5 (Arabidopsis thaliana, UniProt Q84XU2).
T1 sequence (Q84XU2 1-484 isoform Q84XU2-2): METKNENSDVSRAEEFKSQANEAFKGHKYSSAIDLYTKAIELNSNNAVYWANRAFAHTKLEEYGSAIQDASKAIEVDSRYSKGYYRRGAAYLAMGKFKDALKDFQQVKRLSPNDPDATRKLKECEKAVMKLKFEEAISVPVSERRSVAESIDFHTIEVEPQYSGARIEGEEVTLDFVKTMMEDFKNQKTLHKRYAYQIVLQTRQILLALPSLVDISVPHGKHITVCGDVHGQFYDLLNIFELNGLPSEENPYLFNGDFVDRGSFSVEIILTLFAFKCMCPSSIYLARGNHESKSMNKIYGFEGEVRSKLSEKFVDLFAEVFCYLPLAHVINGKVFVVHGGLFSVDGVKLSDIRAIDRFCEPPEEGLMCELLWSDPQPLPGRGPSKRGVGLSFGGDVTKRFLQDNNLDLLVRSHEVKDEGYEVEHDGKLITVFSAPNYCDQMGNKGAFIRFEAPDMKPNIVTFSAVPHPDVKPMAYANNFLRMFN
Put plainly: In vitro phosphatase assay of GST-PAPP5 with ρNPP as substrate: effect of arachidonic acid and okadaic acid. The class given is biochemical. As to the method: In order to examine whether the inventive PAPP5 protein has enzymatic activity, an enzymatic assay was performed using […] ρ-nitrophenyl phosphate (ρNPP) as a substrate. First, the GST-PAPP5 fusion protein purified in Example <4-1> was prewarmed at 30° C. for 1 minute. The prewarmed enzyme solution was added to 100 μl of kinase/phosphatase (KP) buffer (20 mM Tris-HCl pH 7.5, 30 mM MgCl2, 1 mM EDTA, 1 mM EGTA, 0.1% β-mercaptoethanol, 0.1% ethanol) containing O-400 mM ρNPP to initiate a reaction. […] . After reaction at 30° C. for 15 minutes, 900 μl of 0.25N NaOH was added to terminate the reaction. The absorbance at 410 nm was measured. After subtracting the absorbance value of the control reaction solution containing all the components except for the enzyme from that of the reaction solution containing the enzyme, the rate was calculated using a millimolar extinction coefficient (17.8) of ρ-nitrophenolate ions.
In order to confirm if the phosphatase activity of the inventive PAPP5 protein is activated by arachidonic acid, 0-300 μM arachidonic acid was added to a reaction mixture in the presence of 100 mM ρNPP, and the enzymatic activity was measured according to the same method as Example <6-1>.
Thus, the inhibitory effect of okadaic acid on the phosphatase activity of GST-PAPP5 was examined. As a result, the IC50 of okadaic acid, at which the enzyme activity is inhibited by 50%, was 5 nM (data not shown).
(§1) Thus, in order to confirm if PAPP5 also have this property, the present inventors examined the phosphatase activities of GST-PAPP5, GST-TPR and GST-PP2Ac in the same manner as in Example <6-1>. At this time, the concentration of ρNPP was 100 mM.

The target in data set [2] is autophosphorylated oat Pfr phytochrome A (oat).
Data set [3] concerns autophosphorylated oat phytochrome A. Nature of the data set: Dephosphorylation of autophosphorylated phytochrome by PAPP5 in vitro. The class given is biochemical. Conditions: 1 μg fusion protein, 30 minutes. As to the method: First, KP buffer (20 mM Tris-HCl pH7.5, 30 mM MgCl2, 1 mM EDTA, 1 mM EGTA, 0.1% β-mercaptoethanol, 0.1% ethanol) containing 1 μg of purified oat phytochrome A (provided from Kumho Life and Environmental Science Laboratory, Korea) was set on ice and irradiated with Rc light output of 50 μmolS^−1m^−2 at 664 nm for 5 minutes. Then, the reaction solution was allowed to react with [γ-^32P]ATP in dark conditions for 30 minutes (autophosphorylation of phytochrome A). Following addition of 1 μg of each of the fusion proteins GST-PAPP5, GST-TPR and GST-PP2Ac prepared in Examples <4-1> and <5-1>, the reaction continued for more 30 minutes, and then stopped by adding 12 μl of 5× Tris-glycine SDS sample buffer under dim green safe light.
Next, the present inventors investigated whether the phosphatase activity of PAPP5 depends on a change in the spectroscopic structure (photoconversion) of phytochrome molecules (Pr⇄Pfr). KP buffer solution containing phytochrome was set on ice and irradiated with a Rc light output of 50 μmolS^−1m^−2 at 664 nm (conversion of phytochrome into Pfr form) or a FRc light output of 50 μmolS^−1m^−2 at 748 nm (conversion of phytochrome into […]) for 5 minutes. Then, the autophosphylation/dephosphorylation test of phytochrome was performed in the same manner as described above.

Data set [4] deals with phytochromes. Nature of the data set: Quantitative yeast two-hybrid assay (β-galactosidase activity). It counts as cell-based, Arabidopsis thaliana. Conditions: PHYA or PHYB bait, EGY48 yeast. As to the method: In order to quantitatively assay the interaction between the TPR domain of PAPP5 and phytochromes, each of recombinant vectors (preys) for the TPR domain of PAPP5 and for the PP2A catalytic domain of PAPP5 were prepared, respectively.
A PHYA gene or a PHYB gene was prepared by performing PCR according to the same method as in Example <4-2>, and inserted into a pGilda vector. The recombinant vector was used as a bait. The prepared bait or prey was co-introduced into an EGY48 yeast strain together with a pSH18-34 reporter plasmid. The transformed strain was cultured until the OD600 value reached about 0.7. The cultured cells were washed one time with Z-buffer solution (60 mM Na2HPO4, 40 mM NaH2PO4, 10 mM KCl, 1 mM MgSO4, pH 7.0), and then re-suspended in the solution. Thereafter, the solution was frozen with liquid N2. The frozen solution was dissolved, to which β-mercaptoethanol and ONPG (o-nitrophenyl-β-D-galactopyranoside) were then added at final concentrations of 0.2% and 0.67 mg/ml, respectively. The dissolved solution was allowed to react for 30 minutes at 37° C. Next, Na2CO3 was added to the solution at a final concentration of 0.3 M to terminate the reaction. The absorbance at […] was measured, and the β-galactosidase activity was determined in Miller units (Miller, J. H. Experiments in Molecular Genetics (Cold Spring Harbor Laboratory, Cold Spring harbor, N.Y., 1972)).

Data set [5] is described as follows: In vitro phosphatase assay: enzymatic activity of PAPP5 and its domain fragments on ρNPP. It counts as biochemical. The note with it: 100 mM ρNPP; regardless of the addition of arachidonic acid. As to the method:
In order to examine whether the inventive PAPP5 protein has enzymatic activity, an enzymatic assay was performed using […] ρ-nitrophenyl phosphate (ρNPP) as a substrate. First, the GST-PAPP5 fusion protein purified in Example <4-1> was prewarmed at 30° C. for 1 minute. The prewarmed enzyme solution was added to 100 μl of kinase/phosphatase (KP) buffer (20 mM Tris-HCl pH 7.5, 30 mM MgCl2, 1 mM EDTA, 1 mM EGTA, 0.1% β-mercaptoethanol, 0.1% ethanol) containing O-400 mM ρNPP to initiate a reaction. To examine the autohydrolysis of ρNPP at each substrate concentration, the GST-PAPP5 enzyme solution was not added to a control group. After reaction at 30° C. for 15 minutes, 900 μl of 0.25N NaOH was added to terminate the reaction. The absorbance at 410 nm was measured. After subtracting the absorbance value of the control reaction solution containing all the components except for the enzyme from that of the reaction solution containing the enzyme, the rate was calculated using a millimolar extinction coefficient (17.8) of ρ-nitrophenolate ions.
as §1

Data set [6] concerns phytochrome molecules. Put plainly: Pull-down assay with PAPP5 domain fragments. It counts as binding, Arabidopsis thaliana. Here is the method:
Thereafter, according to the same method as in Example <4-1>, an in vitro assay was performed on each of the proteins which have been expressed and purified in E. coli.

The values below come from US7728193B2, “Phytochrome-interacting protein and a use thereof” (Genomine Inc., priority 2004, dated 2010).

For `CCCCC/C=C\C/C=C\C/C=C\C/C=C\CCCC(=O)O` [arachidonic acid], the “arachidonic acid concentration at which activity of GST-PAPP5 reached the stationary phase” value in data set [1] (0-300 μM arachidonic acid, 100 mM ρNPP) was “above 100 μM”. The “increase of phosphatase activity of GST-PAPP5 by arachidonic acid” value in data set [1] (100 mM ρNPP) is reported as “about five times increased”.

For orientation: IC50 means the concentration at which inhibition is half-maximal. With `C=C1[C@@H](O)[C@@H]2O[C@]3(CC[C@H](/C=C/[C@@H](C)[C@@H]4CC(C)=C[C@@]5(O[C@H](C[C@@](C)(O)C(=O)O)CC[C@H]5O)O4)O3)CC[C@H]2O[C@@H]1[C@@H](O)C[C@H](C)[C@H]1O[C@@]2(CCCCO2)CC[C@H]1C` [okadaic acid], the concentration for half-maximal inhibition (IC50) in data set [1] (phosphatase activity of GST-PAPP5, data not shown, read-out: IC50 of okadaic acid, at which the enzyme activity is inhibited by 50%) was determined as 5 nM.

For GST-PAPP5 fusion protein (enzyme), in data set [2], the dephosphorylation of autophosphorylated phytochrome A (autoradiography after SDS-PAGE) came to 80%.

For “GST-PAPP5: a fusion protein of GST and full-length PAPP5”, the “dephosphorylation of autophosphorylated oat Pfr phytochrome A” value in data set [3] is on record as “about 80%”.

B1: B42-PP2Ac: TPR domain-deleted PP2A catalytic domain of PAPP5 as yeast two-hybrid prey (protein)
chain: SVPVSERRSVAESIDFHTIEVEPQYSGARIEGEEVTLDFVKTMMEDFKNQKTLHKRYAYQIVLQTRQILLALPSLVDISVPHGKHITVCGDVHGQFYDLLNIFELNGLPSEENPYLFNGDFVDRGSFSVEIILTLFAFKCMCPSSIYLARGNHESKSMNKIYGFEGEVRSKLSEKFVDLFAEVFCYLPLAHVINGKVFVVHGGLFSVDGVKLSDIRAIDRFCEPPEEGLMCELLWSDPQPLPGRGPSKRGVGLSFGGDVTKRFLQDNNLDLLVRSHEVKDEGYEVEHDGKLITVFSAPNYCDQMGNKGAFIRFEAPDMKPNIVTFSAVPHPDVKPMAYANNFLRMFN
As to B1, the “activity of interaction with phytochromes (β-galactosidase activity)” value in data set [4] is reported as “remarkable reduction”.

B2: GST-PP2Ac: fusion of GST and PP2A catalytic domain of PAPP5 with a deletion of amino acids 1-138 in SEQ ID NO: 4 (protein)
chain: B1 chain
On to B2, for which, in data set [5], the “phosphatase activity relative to GST-PAPP5 with no arachidonic acid” value is “five times higher activity”. The “level of dephosphorylation of autophosphorylated oat Pfr phytochrome A (in words)” value in data set [3] is “very low”.

B3: GST-TPR: fusion protein of GST and TPR domain of PAPP5, amino acids 1-138 of SEQ ID NO: 4 (protein)
chain: METKNENSDVSRAEEFKSQANEAFKGHKYSSAIDLYTKAIELNSNNAVYWANRAFAHTKLEEYGSAIQDASKAIEVDSRYSKGYYRRGAAYLAMGKFKDALKDFQQVKRLSPNDPDATRKLKECEKAVMKLKFEEAIS
For B3, the “ability to interact with phytochrome molecules (pull-down)” value in data set [6] is reported as “has the ability to interact”. Also, the “level of dephosphorylation of autophosphorylated oat Pfr phytochrome A (in words)” value in data set [3] is “do not affect the phosphorylation status”.
